From article PMC3483115

Target: TRPV1-CT44 (TRPV1 C-terminal residues 759–802) (rat) (UniProt O35433)
Experiment: other fluorescence titration

TRPV1-CT44 (TRPV1 C-terminal residues 759–802) (rat), sequence (O35433 759-802): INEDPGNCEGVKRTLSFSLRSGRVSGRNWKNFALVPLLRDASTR

stoichiometry N: 1
Substance: calmodulin (CaM), wild type (from UniProt P0DP23 1-149) (natural protein)
